Data reported in paper PMC12575849, “Condensation-dependent interactome of a chromatin remodeler underlies tumor suppressor activities” (Nature Communications, 2025).

Molecular target: unmodified nucleosome (recombinant human histone octamer on Widom 601 DNA) (human, UniProt P04908 1-130; O60814 1-126; P68431 1-136; P62805 1-103)
Assay: native gel or EMSA; purified CHD1 titrated against 5 nM IR dye-conjugated nucleosome in EMSA buffer (10 mM HEPES pH 8.0, 75 mM NaCl, 5 mM MgCl2, 10% glycerol, 1 mM DTT, 0.1 mg/ml BSA), 30 min at 30 °C, native PAGE; shifted fraction fitted to a dose-response curve
Conditions: both partners purified

B1: recombinant CHD1^ΔNC protein (domain or fragment)
chain: EEEFETIERFMDCRIGRKGATGATTTIYAVEADGDPNAGFEKNKEPGEIQYLIKWKGWSHIHNTWETEETLKQQNVRGMKKLDNYKKKDQETKRWLKNASPEDVEYYNCQQELTDDLHKQYQIVERIIAHSNQKSAAGYPDYYCKWQGLPYSECSWEDGALISKKFQACIDEYFSRNQSKTTPFKDCKVLKQRPRFVALKKQPSYIGGHEGLELRDYQLNGLNWLAHSWCKGNSCILADEMGLGKTIQTISFLNYLFHEHQLYGPFLLVVPLSTLTSWQREIQTWASQMNAVVYLGDINSRNMIRTHEWTHHQTKRLKFNILLTTYEILLKDKAFLGGLNWAFIGVDEAHRLKNDDSLLYKTLIDFKSNHRLLITGTPLQNSLKELWSLLHFIMPEKFSSWEDFEEEHGKGREYGYASLHKELEPFLLRRVKKDVEKSLPAKVEQILRMEMSALQKQYYKWILTRNYKALSKGSKGSTSGFLNIMMELKKCCNHCYLIKPPDNNEFYNKQEALQHLIRSSGKLILLDKLLIRLRERGNRVLIFSQMVRMLDILAEYLKYRQFPFQRLDGSIKGELRKQALDHFNAEGSEDFCFLLSTRAGGLGINLASADTVVIFDSDWNPQNDLQAQARAHRIGQKKQVNIYRLVTKGSVEEDILERAKKKMVLDHLVIQRMDTTGKTVLHTGSAPSSSTPFNKEELSAILKFGAEELFKEPEGEEQEPQEMDIDEILKRAETHENEPGPLTVGDELLSQFKVANFSNMDEDDIELEPERNSKNWEEIIPEDQRRRLEEEERQKELEEIYMLPRMRNCAKQISFNGSEGRRSRSRRYSGSDSDSISEGKRPKKRGRPRTIPRENIKGFSDAEIRRFIKSYKKFGGPLERLDAIARDAELVDKSETDLRRLGELVHNGCIKALKDSSSGTERTGGRLGKVKGPTFRISGVQVNAKLVISHEEELIPLHKSIPSDPEERKQYTIPCHTKAAHFDIDWGKEDDSNLLIGIYEYGYGSWEMIKMDPDLSLTHKILPDDPDKKPQAKQLQTRADYLIKLLSRDLAKKEALSGAGSSKRRKARAKKNKA
Kd: 6.3 nM
